Laboratory results as given in the DeepSol protein solubility set.

assay: soluble on expression in E. coli; label from the status in PepcDB or PDB records

| Sequence | soluble on expression in E. coli |
| --- | --- |
| MNSLLRLSHLAGPAHYRALHSSSSIWSKVAISKFEPKSYLPYEKLSQTVKIVKDRLKRPLTLSEKILYGHLDQPKTQDIERGVSYLRLRPDRVAMQDATAQMAMLQFISSGLPKTAVPSTIHCDHLIEAQKGGAQDLARAKDLNKEVFNFLATAGSKYGVGFWKPGSGIIHQIILENYAFPGLLLIGTDSHTPNGGGLGGLCIGVGGADAVDVMADIPWELKCPKVIGIKLTGKLNGWTSAKDVILKVADILTVKGGTGAIVEYFGPGVDSISATGMGTICNMGAEIGATTSVFPYNESMYKYLEATGRKEIAEEARKYKDLLTADDGANYDQIIEINLDTLTPHVNGPFTPDLASSIDKLGENAKKNGWPLDVKVSLIGSCTNSSYEDMTRAASIAKQALDKGLKAKTIFTITPGSEQVRATIERDGLSKIFADFGGMVLANACGPCIGQWDRQDVKKGEKNTIVTSYNRNFTGRNDANPATHGFVTSPDITTAMAISGRLDFNPLTDELTAADGSKFKLQAPTGLDLPPKGYDPGEDTFQAPSGSGQVDVSPSSDRLQLLSPFDKWDGKDLEDMKILIKVTGKCTTDHISAAGPWLKYRGHLDNISNNLFLTAINADNGEMNKVKNQVTGEYGAVPATARKYKADGVRWVAIGDENYGEGSSREHAALEPRHLGGRAIIVKSFARIHETNLKKQGMLPLTFANPADYDKIDPSDNVSIVGLSSFAPGKPLTAIFKKTNGSKVEVTLNHTFNEQQIEWFKAGSALNRMKEVFAKSK | soluble |
| MNSLRPELLELTPQALTALSNAGFVKRSLKELENGNVPEISHENSALIATFSDGVRTQLANGQALKEAQCTYGASGMCRHRVMLVLSYQRLCATAQPTGKEEEWDPAIWLEELATLPDATRKRAQALVAKSITIELFCAPGEIPSARLPMSDVRFYSRSSIRFARCDCIEGTLCEHVVLAVQAFVQAKAQQAELTHLIWQMRSEHVTSSDDPFASEEGKTCRQYVQQLSQALWLSGISQPLIHYEAAFSRAQQAAERCSWRWVSESLRQLRASVDAFHARASHYHAGECLRQLAALNSRLNCAQEMARSDSVGEVPPVPWRTVVGSGIAGEAKLDHLRLVSLGMRCWQDIEHYGLRIWFTDPDTGSILHLSRSWPRSEQEDSPAATRRLFSFQAGALAGGQIVSQAAKRSADGELLLATRNRLSSVVPLSPDAWQMLSAPLRQPGIVALREYLRQRPPACIRPLNQVDNLFILPVAECISLGWDSSRQTLDAQVISGEGEDNLLTLSLPASASAPYAIERMAALLQQTDDPVCLVSGFVSFVDGQLTLEPQVMMTKTRAWALDAETAPVVVSLPSASVLPVPSTAHQLLMRCQALLIQLLHNGWRYQEQSAINQAELLANDLTAVGFYRLAHVLAQFRNTESEARVEAMNNGVLLCEQLFPMLQQQG | not soluble |
| MNSTHHYEQLIEIFNSCFADDFNTRLIKGDDEPIYLPADAEVPYNRIVFAHGFYASAIHEISHWCIAGKARREQVDFGYWYCPDGRDAQTQSQFEDVEVKPQALDWLFCVAAGYPFNVSCDNLEGDFEPDRVVFQRRVHAQVMDYLTNGIPERPARFIKALQNYYHTPELTAEQFPWPEALN | soluble |
| MNSYPLISVIMSVYKEEREWLVSSIQSILDQTVSDFEFIIILDFPNSELLKTLKDFEKKDSRIIIYQNEKNVGLVESLNTALSFSRGKYIARMDADDISHKNRFEKQLKYITLNNLDLVGGNVNIFHSNKGIYNTTDKVQSDYFLCKLLKIGTIGIVHPTFFSKRNVYDTIGGYYHAECAEDLELLMRANLNGFKIGNIPDVILDCRYSEKSITKENAYFMFCTVKYLKSLYRSSLKSGDYKFNSNYIELYLYDENNKLAFSEKQNLMSEARHSFNEKKYISFLINLIKSILISRTVFFSIKVNVMSFLFRKVEVKIPKVLLACIKIKLQLEHHHHHH | soluble |
| MNTAQLTSKQTLSYVEQTALVLLGMGEDAAAKVLQHFTRDETQRVTRAMAKLNGIKSDSARGVIQNFFEDFREHSGIRGASKEYLSNTLRKALGNDLAKGLLNNLYGDEIRNNMQRLQWVEAETLARFIVNEHPQMQAIFLAYLPADSSSAVLKHLPQDYHDEIIFRIAQLQDIDHQVATDLHELVERCIEKVSASQSVPLSGVKQAADIINRFEGDRGSLMEMLKLHDEEVVNAIEEN | not soluble |
| MNTAVKAAVAAALVMGVSSFANAAGSNTGTVTFTGTIEDSPCSIVVGDEHQTVNLGHIGTGSLMGGKESSKVDFHIGLENCAFTTEKEASTVFSAIGNESSANPGSVALMRIGGGEMAGSSIVIGNHLGSAIKLGDAYSENLTMNGSVAAAKQTLNFKAWVKGDSAATTIDTGEFSSTVNFTISYL | not soluble |
| MNTEEQPVTASLVAEAQRLDFLPTYFGPRLMMRGEALVYAWMRRLCERYNGAYWHYYALSDGGFYMAPDLAGRLEIEVNGNGFRGELSADAAGIVATLFALGQLAAEIADTDAADALIDRYHFLRGFAAGHPEAAAIYRAID | soluble |
| MNTGEMKINWVSRYMPLLNKIAEEYSREKPLSGFTVGMSIHLEAKTAYLAITLSKLGAKVVITGSNPLSTQDDVAEALRSKGITVYARRTHDESIYRENLMKVLDERPDFIIDDGGDLTVISHTEREEVLENLKGVSEETTTGVRRLKALEETGKLRVPVIAVNDSKMKYLFDNRYGTGQSTWDAIMRNTNLLVAGKNVVVAGYGWCGRGIALRAAGLGARVIVTEVDPVKAVEAIMDGFTVMPMKEAVKIADFVITASGNTDVLSKEDILSLKDGAVLANAGHFNVEIPVRVLEEIAVEKFEARPNVTGYTLENGKTVFLLAEGRLVNLAAGDGHPVEIMDLSFALQIFAVLYLLENHRKMSPKVYMLPDEIDERVARMKLDSLGVKIDELTEKQRRYLRSWQ | soluble |
| MNTKCLREKIEKIKPHLLKTASDTLQGYVFGCMIGVFSSSEKPSLRHVHESGKSFAKVSMIYSTTESALQLYGSKNAPLNSLISGAVAGGLGVNDRSKKSILTGAASFGLYTGMSNIFSVQGQK | not soluble |
| MNTKFLGKTLVASALVLTTLGTGLHSSYLGLDTNKVVKTAKAEEKMTDGQLWKKVKDSLHDSDIILSNEYETINVTYLLSNGYSSSVSAPGNDDGGHLTQSIDFKGLKQIDLTKENVYDDFNKKLDAKNTWNSLTEKLKGLGLLQNGQKVSIYSSDSSSPVSGKVGEGVTSGGENTLTKRFINKITID | not soluble |
| MNTPSRTHLVIIPSYNPGPKVYETVQAARRYWNPVWVVVDGSTDGTWEGLLKLSAEDSGLVVLGMPANRGKGAAVLRGLLTSRRKGFTHALVMDSDGQHPADRIPEFMARSQEEPDAMILGVPVFDDSAPSLRVKGRRISNWWANLETLWCGIGDSLFGFGVYPIQALCVIMQDHQWMRRFDFDPEAAVRLCWAGIRPVNLPVPVYYPKPEEGGTSHFHYWRDNALLTWMHVRLMFGFLARLPILLARIVRRPEILEHHHHHH | not soluble |
| MNTQFSCVGCGKCCNDHHVPLTLLEARDWAADGGQVIILVEAFLGNGLGLPMQQREHAERRSCRVRSGATEAYVAITFAAYNVGPCRNLDEDQLCRIYQRRPLVCRIYPMEINPHIPLNPQAKECPPESWEQGPQLILGNELVDQELAELIRRSRQADRDDIHTKEAICALLGIRTTALKGDGFTAYLPDMGALANAIDQVQAAPPGAPGQPWRFHLSGDDIAGQVQAAGAQVVSETPLDYAFISLRAALEHHHHHH | soluble |
| MNTRTIYLAGGSFWGLEAYFQRIDGVVDAVSGYANGNTKNPSYEDVSYRHTGHAETVKVTYDADKLSLDDILQYFFRVVDPTSLNKQGNDTGTQYRSGVYYTDPAEKAVIAAALKREQQKYQLPLVVENEPLKNFYDAEEYHQDYLIKNPNGYCHIDIRKADEPLPGKTKTAPQGKGFDAATYKKPSDAELKRT | soluble |
| MNTTDRQITFSALSCLLSYPDEEWRAELPDWKALIQEIGNRQIREKLLHFFETSASYSPEALIEHYVYTFDFGKKTNMYVTYFNSGEQRERGIELLHLKNTYEQSGFLPTEKELPDYLPLMLEFAAAAEIEAARSVFEKYLSNVRELASRLEKNDSIYAELLHVLLAALENIGVRESVEGAVQALEHHHHHH | not soluble |
| MNTTQRADQQTSADRRRRELLEAADRVVLRDGPHASMNAIAAEAGITKPILYRHFGDKGGLYAALAVRHTDALLASLRAALDAPAQRRQRVEATLDTYLAAIEARPQVYRFLMHPAESAGTPGDQSEQGFDVGKHSAPLLRRMGEELAQVIEERLDVGPGTQQLARVWGHGIVGMMHAAGDWWLGERPCPREELVRTLADLLWGRLAEAGDKEGGPGF | not soluble |
